Key:
[1] = target: rat FcεRI (high affinity IgE receptor) on RBL-2H3 cells (rat) (UniProt P12371); experiment: FACS on RBL-2H3 cells; FITC-conjugated IgE after preincubation with saturating unconjugated 4H7 (competitor); set-up: unit not given here
[2] = target: rat FcεRI (high affinity IgE receptor) on RBL-2H3 cells (rat) (UniProt P12371); experiment: FACS on RBL-2H3 cells; FITC-conjugated IgE after preincubation with saturating unconjugated BC4 (competitor); conditions: scale: mCi
[3] = target: rat FcεRI (high affinity IgE receptor) on RBL-2H3 cells (rat) (UniProt P12371); experiment: FACS on RBL-2H3 cells; FITC-conjugated IgE after preincubation with saturating unconjugated 1A12 (competitor); conditions: scale: mCi
[4] = target: rat FcεRI (high affinity IgE receptor) on RBL-2H3 cells (rat) (UniProt P12371); experiment: FACS on RBL-2H3 cells; FITC-conjugated IgE after preincubation with saturating unconjugated 3A9 (competitor); conditions: scale: mCi
[5] = target: rat FcεRI (high affinity IgE receptor) on RBL-2H3 cells (rat) (UniProt P12371); experiment: FACS on RBL-2H3 cells; FITC-conjugated IgE at a subsaturating concentration, no preincubation; conditions: scale: mCi
[6] = target: rat FcεRI (high affinity IgE receptor) on RBL-2H3 cells (rat) (UniProt P12371); experiment: FACS on RBL-2H3 cells; FITC-conjugated IgE after preincubation with saturating unconjugated AA4 (anti-ganglioside Gd1b, competitor); conditions: scale: mCi
[7] = target: rat FcεRI (high affinity IgE receptor) on RBL-2H3 cells (rat) (UniProt P12371); experiment: FACS on RBL-2H3 cells; FITC-conjugated IgE after preincubation with saturating unconjugated 5.14 (competitor); conditions: scale: mCi

Median Fluorescence Intensity [1]: 6.4
Median Fluorescence Intensity [2]: 5.8
Median Fluorescence Intensity [3]: 61
Median Fluorescence Intensity [4]: 6.5
Median Fluorescence Intensity [5]: 75
Median Fluorescence Intensity [6]: 12.3
Median Fluorescence Intensity [7]: 5.5
Substance: IgE (antibody)
